Key:
MOLT-4 cells [1] = assay: Flow cytometry binding to MOLT-4 cells not expressing mPDGFR-β; details: 100 nM; FIG. 6
Method: The present inventors tested the binding ability of the bispecific antibody of scFv-Cκ-scFv fusion proteins in MOLT-4 cells not expressing mPDGFR-β by flow cytometry analysis. MOLT-4 cells were cultured with a bispecific antibody of scFv-Cκ-scFv fusion protein (100 nM) at 4° C. for 1 hour. After washing as described above, the detection was conducted by treating with an APC-anti human Cκ antibody. The MOLT-4 cells were purchased from the Korea Cell Line Bank and prepared by culturing in RPMI-1640 (Welgene, Seoul, Korea) medium added by 10% fetal bovine serum, 1% penicillin, and streptomycin.

MOLT-4 cells [2] = assay: Cytotoxicity in MOLT-4 cells not expressing mPDGFR-β; type: cell-based; details: complex with cot-duo; FIG. 7
Method: FIG. 7 is a graph confirming the cytotoxic ability of the bispecific antibody related to the anti-mPDGFR-β antibody and cot-duo complexes in the cells not expressing PDGFR-β. In FIG. 7a, MOLT-4 cells were reacted with the bispecific antibody and cot-duo complex (DAR4). The cellular ATP was measured to evaluate the relative cell viability. In FIG. 7b, MOLT-4 cells were reacted with the bispecific antibody and cot-duo complex (DAR2). The bispecific antibody anti-HER2 x cotinine scFv-Cκ-scFv was used as a negative control. DMSO was used as a vehicle control for cot-duo.

NIH3T3 cells = assay: Internalization analysis by confocal microscopy in NIH3T3 cells; type: cell-based, mouse; details: 10 μg/mL, 37° C., 30 minutes, FIG. 4c
Method: The bispecific antibody of scFv-Cκ-scFv fusion protein was analyzed with a confocal microscope for visualizing internalization. NIH3T3 cells were treated with the bispecific antibody of scFv-Cκ-scFv (10 μg/mL) diluted in DMEM containing 10% FBS, and internalized at 37° C. for 30 minutes. After washing the cells 3 times with cold PBS, acidic buffer (0.2 M acetic acid, 0.5 M sodium chloride) was treated at room temperature for 5 minutes to remove the antibody bound to the cell surface. Cells were washed twice with cold PBS, fixed with 4% paraformaldehyde for 10 minutes, and then subjected to immunofluorescence staining as previously described [J. M. Lim et al., J. Cell. Biol. 210 (2015) 23].
Briefly, to block antibodies having non-specific reaction, cells were incubated in PBS containing 5% horse serum and 0.1% Triton X-100 for 30 minutes, and 2 μg/mL FITC-anti human Cκ antibody (TB28-2, BD Biosciences) was added at room temperature for 30 minutes. To image the initial endosomes, the cells were washed 3 times with PBS, incubated with PBS containing 5% horse serum and 0.1% Triton X-100 for 30 minutes, and then incubated with ati-RabS antibody diluted to 1:200 (C8B1, Cell Signaling Technology, Danvers, MA, USA). Alexa Fluor 546 goat anti-rabbit IgG (A-11035, Invitrogen) was sequentially treated. Cells were treated with 0.2 μg/mL DAPI to detect DNA. Confocal microscopy images were obtained using a Zeiss LSM 880 microscope, and images were analyzed with Zen software (Carl Zeiss, Thornwood, NY, USA).
To measure the cellular internalization of the bispecific antibody of scFv-Cκ-scFv, anti-mPDGFR-β x cotinine scFv-Cκ-scFv fusion protein was incubated in NIH3T3 cells, and then treated with FITC-anti-human Cκ antibody and endosome-specific antibody. It was imaged using a confocal microscope. […] When the images were merged, the present inventors confirmed that the fluorescence of the three antibody clones and the endosome-specific antibody were co-localized.

mPDGFR-β = target: T1, mPDGFR-β (Mus musculus, UniProt P05622); assay: Competition enzyme immunoassay with mPDGF-BB; type: binding; details: mPDGF-BB 100 nM; FIG. 4a
T1 construct: mPDGFR-β
T1 sequence (P05622 32-530): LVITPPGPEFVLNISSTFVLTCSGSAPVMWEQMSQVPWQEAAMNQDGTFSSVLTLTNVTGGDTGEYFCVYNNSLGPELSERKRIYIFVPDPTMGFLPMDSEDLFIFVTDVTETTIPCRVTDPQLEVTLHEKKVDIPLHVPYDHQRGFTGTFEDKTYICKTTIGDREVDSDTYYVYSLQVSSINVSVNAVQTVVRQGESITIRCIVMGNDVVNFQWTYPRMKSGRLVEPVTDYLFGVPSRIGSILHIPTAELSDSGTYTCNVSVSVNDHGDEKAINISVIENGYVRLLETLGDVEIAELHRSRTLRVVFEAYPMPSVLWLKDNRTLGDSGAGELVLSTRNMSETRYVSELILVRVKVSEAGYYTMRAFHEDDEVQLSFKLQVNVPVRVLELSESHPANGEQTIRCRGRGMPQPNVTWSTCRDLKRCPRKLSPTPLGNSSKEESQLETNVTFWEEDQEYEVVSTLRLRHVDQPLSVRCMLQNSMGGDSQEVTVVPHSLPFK
Method: In order to confirm the competition between the bispecific antibody according to the present invention and mPDGF-BB, the microtiter plate was coated with mPDGFR-β-Fc chimera as mentioned above and then blocked. The microtiter plate was treated with various concentrations of the bispecific antibody (0.06 nM-1 μM) with or without addition of mPDGF-BB (100 nM), and then incubated at 37° C. for 2 hours. The washing, incubation, and detection were performed in the same manner as the enzyme immunoassay described above.
A competition enzyme immunoassay was developed to examine the effect of mPDGF-BB on the binding ability of anti-mPDGFR-β x cotinine scFv-Cκ-scFv fusion protein. The serially diluted bispecific antibodies (anti-mPDGFR-β scFv-Cκ-cotinine scFv) were incubated on wells coated with mPDGFR-β-Fc chimeric fusion protein with or without mPDGF-BB. HRP-anti-human Cκ antibody was incubated and then TMB was added. […] However, the binding ability of PRb-CN01 was not inhibited, so it confirmed that PRb-CN01 binds to mPDGFR-β in a noncompetitive manner to mPDGF-BB.

neovascularization = assay: Laser-induced choroidal neovascularization animal model; type: in vivo, mice; details: complex with cot-duo; 1 uL into the vitreous cavity, 10 nM; FIG. 10
Method: After anesthetizing the mice, the retina of the mouse was irradiated with an indirect ophthalmoscope system (ILOODA) laser in a 300 um spot size with 400 mW intensity, 50 ms duration, and 810 nm wavelength to induce destruction of Bruch's membrane.
After 4 days of laser irradiation, 1 uL of each bispecific antibody scFv-Cκ-scFv, and complex of the bispecific antibody scFv-Cκ-scFv fusion protein and the cot-duo was injected into the vitreous cavity at a concentration of 10 nM. After 7 days of laser irradiation, the eyes were removed to obtain retinal pigment epithelial-choroid-scleral tissue, and immunofluorescence staining was performed with isolectin B4 antibody conjugated to Alexa Fluor 594 to determine the extent of the choroidal neovascular membrane. The neovascularization inhibition ability of the scFv-Cκ-scFv fusion protein and the cot-duo complex was confirmed. To quantitatively analyze the extent of the choroidal neovascular membrane, the ImageJ program (NIH) was used.

B1: PRb-CN01: anti-mPDGFR-β chicken scFv clone (VH SEQ ID NO 7, VL SEQ ID NO 8), tested as scFv-Cκ-anti-cotinine scFv bispecific antibody (antibody, V domains shown)
VH: AVTLDESGGGLQTPGGALSLVCKASGFTFSDRAMHWVRQAPGKGLEWVGLITNTGGSTNYGAAVKGRATISRDNGQSTVRLQLNNLRAEDTGTYYCTRGVGSWAHGGRIDAWGHGTEVIVSS
VL: LTQPSSVSANPGETVKITCSGGSGSYGWFQQKSPGSAPVTVIYSNNQRPSDIPSRFSGSKSGSTNTLTITGVQAEDEAIYYCGTRDSSYVGIFGAGTTLTVL
modifications: VH of PRb-CN01; VL of PRb-CN01
For B1, the “binding to MOLT-4 cells” value (MOLT-4 cells [1]) was “neither PRb-CN01 nor the anti-HER2 bispecific antibody of scFv-Cκ-scFv fusion antibody binds”, the “toxicity in MOLT-4 cells compared to control antibody” value (MOLT-4 cells [2]) was “no difference in toxicity from the control antibody” and the cellular internalization (NIH3T3 cells) was “Intracellular fluorescence was detected”. For the same molecule, the “binding ability to mPDGFR-β in the presence of mPDGF-BB” value (mPDGFR-β) was “not inhibited” and the inhibition of neovascularization (neovascularization) was “inhibited neovascularization”.
